One molecule from paper PMC10897489 can be followed below.

Data set [1] addresses SARS-CoV-2 N protein (NCAP_SARS2) (SARS-CoV-2, UniProt P0DTC9 1-419). Put plainly: ITC. Particulars: protein: recombinant; chain copies: 2.
Data set [2] addresses FXR1 215-360 (KH1-KH2) (UniProt P51114 215-360). In words: ITC; ITC: 50 mM sodium phosphate pH 7.5, 150 mM NaCl, 0.5 mM TCEP, 25 °C. The conditions noted are these: protein: recombinant; tags: His or GST (not specified which).

B1: NF1 RNA (ssRNA)
RNA: GGAUCAUUUUGUUGGACUCAAUUUCAACUCUAACUUUAACUUUGCAUUGGUUGGACACCU
For the molecule B1, in data set [1], the dissociation constant (Kd) – broadly, a measure of binding affinity in units of concentration – was determined as 380 ± 40 nM. Moreover, the binding result in data set [2] is reported as “no binding”.
